Laboratory results: the supplement of paper PMC11908140

B1: library; numbered along this chain (parent)
chain: MRKPRAAVGSGHRKQAASQEGRQKHAKNNSQAKPSACDGLARQPEEVVLQASVSSYHLFRDVAEVTAFRGSLLSWYDQEKRDLPWRRRAEDEMDLDRRAYAVWVSEVMLQQTQVATVINYYTGWMQKWPTLQDLASASLEEVNQLWAGLGYYSRGRRLQEGARKVVEELGGHMPRTAETLQQLLPGVGRYTAGAIASIAFGQATGVVDGNVARVLCRVRAIGADPSSTLVSQQLWGLAQQLVDPARPGDFNQAAMELGATVCTPQRPLCSQCPVESLCRARQRVEQEQLLASGSLSGSPDVEECAPNTGQCHLCLPPSEPWDQTLGVVNFPRKASRKPPREESSATCVLEQPGALGAQILLVQRPNSGLLAGLWEFPSVTWEPSEQLQRKALLQELQRWAGPLPATHLRHLGEVVHTFSHIKLTYQVYGLALEGQTPVTTVPPGARWLTQEEFHTAAVSTAMKKVFRVYQGQQPGTCMGSKRSQVSSPCSRKKPRMGQQVLDNFFRSHISTDAHSLNSAAQ

Variants of: B1
Test: 8OG:A repair function score (normalized; synonymous = 0, nonsense = -1) (normalized log-likelihood score); higher = more repair activity (WT-like)
Details: with 8OG:A DNA repair reporter (GFP) in HEK-293 MUTYH KO cells
Procedure, shortened: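 MUTYH knockout HEK-293 cells carrying lentiviral MUTYH cDNA NNN codon-scan libraries were grown with 10 pg/ml doxycycline and co-transfected with mCherry and a GFP reporter of 8OG:A repair. Viable mCherry+ cells were sorted at 72 h into GFP+ (repair) and GFP− bins, with three replicates per tile, and tile amplicons were sequenced. Rosace fitness scores for each tile were turned into a normalized repair function score anchored on the synonymous and nonsense distributions. Synonymous medians were set to 0 and nonsense medians to -1, and variants below 300 counts per million at the start were dropped.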

In order of falling “8OG:A repair function score” value:
1. MRKPRAAVGSGHRKQAASQEGRQKHAKNNSQAKPSACDGLARQPEEVVLQASVSSYHLFRDVAEVTAFRGSLLSWYDQEKRDLPWRRRAEDEMDLDRRAYAVWVSEVMLQQTQVATVINYYTGWMQKWPTLQDLASASLEEVNQLWAGLGYYSRGRRLQEGARKVVEELGGHMPRTAETLQQLLPGVGRYTAGAIASIAFGQATGVVDGNVARVLCRVRAIGADPSSTLVSQQLWGLAQQLVDPARPGDFNQAAMELGATVCTPQRPLCSQCPVESLCRARQRVEQEQLLASGSLSGSPDVEECAPNTGQCHLCLPPSEPWDQTLGVVNFPRKASRKPPREESSATCVLEQPGALGAQILLVQRPNSGLLAGLWEFPSVTWEPSEQLQRKALLQELQRWAGPLPATHLRHLGEVVHTFSHIKLTYQVYGLALEGQTPVTTVPPGARWLTQEEFHTAAVSTAMKKVFRVYQGQQPGTIMGSKRSQVSSPCSRKKPRMGQQVLDNFFRSHISTDAHSLNSAAQ [C477I]  -0.0054
2. MRKPRAAVGSGHRKQAASQEGRQKHAKNNSQAKPSACDGLARQPEEVVLQASVSSYHLFRDVAEVTAFRGSLLSWYDQEKRDLPWRRRAEDEMDLDRRAYAVWVSEVMLQQTQVATVINYYTGWMQKWPTLQDLASASLEEVNQLWAGLGYYSRGRRLQEGARKVVEELGGHMPRTAETLQQLLPGVGRYTAGAIASIAFGQATGVVDGNVARVLCRVRAIGADPSSTLVSQQLWGLAQQLVDPARPGDFNQAAMELGATVCTPQRPLCSQCPVESLCRARQRVEQEQLLASGSLSGSPDVEECAPNTGQCHLCLPPSEPWDQTLGVVNFPRKASRKPPREESSATCVLEQPGALGAQILLVQRPNSGLLAGLWEFPSVTWEPSEQLQRKALLQELQRWAGPLPATHLRHLGEVVHTFSHIKLTYQVYGLALEGQTPVTTVPPGARWLTQEEFHTAAVSTAMKKVFRVYQGQQPGTCMGSKHSQVSSPCSRKKPRMGQQVLDNFFRSHISTDAHSLNSAAQ [R482H]  -0.0234
3. MRKPRAAVGSGHRKQAASQEGRQKHAKNNSQAKPSACDGLARQPEEVVLQASVSSYHLFRDVAEVTAFRGSLLSWYDQEKRDLPWRRRAEDEMDLDRRAYAVWVSEVMLQQTQVATVINYYTGWMQKWPTLQDLASASLEEVNQLWAGLGYYSRGRRLQEGARKVVEELGGHMPRTAETLQQLLPGVGRYTAGAIASIAFGQATGVVDGNVARVLCRVRAIGADPSSTLVSQQLWGLAQQLVDPARPGDFNQAAMELGATVCTPQRPLCSQCPVESLCRARQRVEQEQLLASGSLSGSPDVEECAPNTGQCHLCLPPSEPWDQTLGVVNFPRKASRKPPREESSATCVLEQPGALGAQILLVQRPNSGLLAGLWEFPSVTWEPSEQLQRKALLQELQRWAGPLPATHLRHLGEVVHTFSHIKLTYQVYGLALEGQTPVTTVPPGARWLTQEEFHTAAVSTAMVKVFRVYQGQQPGTCMGSKRSQVSSPCSRKKPRMGQQVLDNFFRSHISTDAHSLNSAAQ [K463V]  -0.129
4. MRKPRAAVGSGHRKQAASQEGRQKHAKNNSQAKPSACDGLARQPEEVVLQASVSSYHLFRDVAEVTAFRGSLLSWYDQEKRDLPWRRRAEDEMDLDRRAYAVWVSEVMLQQTQVATVINYYTGWMQKWPTLQDLASASLEEVNQLWAGLGYYSRGRRLQEGARKVVEELGGHMPRTAETLQQLLPGVGRYTAGAIASIAFGQATGVVDGNVARVLCRVRAIGADPSSTLVSQQLWGLAQQLVDPARPGDFNQAAMELGATVCTPQRPLCSQCPVESLCRARQRVEQEQLLASGSLSGSPDVEECAPNTGQCHLCLPPSEPWDQTLGVVNFPRKASRKPPREESSATCVLEQPGALGAQILLVQRPNSGLLAGLWEFPSVTWEPSEQLQRKALLQELQRWAGPLPAPHLRHLGEVVHTFSHIKLTYQVYGLALEGQTPVTTVPPGARWLTQEEFHTAAVSTAMKKVFRVYQGQQPGTCMGSKRSQVSSPCSRKKPRMGQQVLDNFFRSHISTDAHSLNSAAQ [T406P]  -0.287
5. MRKPRAAVGSGHRKQAASQEGRQKHAKNNSQAKPSACDGLARQPEEVVLQASVSSYHLFRDVAEVTAFRGSLLSWYDQEKRDLPWRRRAEDEMDLDRRAYAVWVSEVMLQQTQVATVINYYTGWMQKWPTLQDLASASLEEVNQLWAGLGYYSRGRRLQEGARKVVEELGGHMPRTAETLQQLLPGVGRYTAGAIASIAFGQATGVVDGNVARVLCRVRCIGADPSSTLVSQQLWGLAQQLVDPARPGDFNQAAMELGATVCTPQRPLCSQCPVESLCRARQRVEQEQLLASGSLSGSPDVEECAPNTGQCHLCLPPSEPWDQTLGVVNFPRKASRKPPREESSATCVLEQPGALGAQILLVQRPNSGLLAGLWEFPSVTWEPSEQLQRKALLQELQRWAGPLPATHLRHLGEVVHTFSHIKLTYQVYGLALEGQTPVTTVPPGARWLTQEEFHTAAVSTAMKKVFRVYQGQQPGTCMGSKRSQVSSPCSRKKPRMGQQVLDNFFRSHISTDAHSLNSAAQ [A220C]  -0.411
6. MRKPRAAVGSGHRKQAASQEGRQKHAKNNSQAKPSACDGLARQPEEVVLQASVSSYHLFRDVAEVTAFRGSLLSWYDQEKRDLPWRRRAEDEMDLDRRAYAVWVSEVMLQQTQVATVINYYTGWMQKWPTLQDLASASLEEVNQLWAGLGYYSRRRRLQEGARKVVEELGGHMPRTAETLQQLLPGVGRYTAGAIASIAFGQATGVVDGNVARVLCRVRAIGADPSSTLVSQQLWGLAQQLVDPARPGDFNQAAMELGATVCTPQRPLCSQCPVESLCRARQRVEQEQLLASGSLSGSPDVEECAPNTGQCHLCLPPSEPWDQTLGVVNFPRKASRKPPREESSATCVLEQPGALGAQILLVQRPNSGLLAGLWEFPSVTWEPSEQLQRKALLQELQRWAGPLPATHLRHLGEVVHTFSHIKLTYQVYGLALEGQTPVTTVPPGARWLTQEEFHTAAVSTAMKKVFRVYQGQQPGTCMGSKRSQVSSPCSRKKPRMGQQVLDNFFRSHISTDAHSLNSAAQ [G155R]  -0.543
